Reference: patent publication US20210179706A1 (AKESO BIOPHARMA, published 2021)

Columns and labels:
[1] = target: T1, human IL-1β-His-Bio (human, UniProt P01584 117-269, limits assumed, biotinylated with EZ-Link Sulfo-NHS-LC-Biotinylation Kit (sites not given)); experiment: ELISA, IL-1β-His-Bio captured on streptavidin; antibody 0.012 µg/mL
T1 construct: also called biotinylated human IL-1β-His; not shown: His tag

[2] = target: T1, human IL-1β-His-Bio; experiment: ELISA, IL-1β-His-Bio captured on streptavidin; 4-parameter fit
Experimental: A plate was coated with 50 μL of 2 μg/mL SA (streptavidin) in each well, and incubated overnight at 4° C. After the plate was washed once and the residual liquid was removed, each well was blocked with 300 μL of 1% BSA solution (dissolved in PBS) and the plate was incubated at 37° C. for 2 h. The plate was washed three times and the residual liquid was removed. Human IL-1β-His-Bio in each well was diluted with 50 μL of PBST to 0.2 μg/mL, and the plate was incubated at 37° C. for 30 min. Then the plate was washed three times and the residual liquid was removed. […] Two duplicate wells were set for the above concentrations, with a final volume of 100 μL per well, and the plate was incubated at 37° C. for 30 min. […] After the plate was washed four times and the residual liquid was removed, 50 μL of TMB chromogenic solution was added to each well for color developing for 5 min away from light at room temperature, then 50 μL of stop solution was added to each well to stop the reaction. Then the plate was put into a plate reader immediately, and the OD value of each well in the plate was read at 450 nm.
SoftMax Pro 6.2.1 software was used to analyze and process the data. 4-parameter fitted curves were plotted using the antibody concentration as the abscissa and the absorbance as the ordinate.

[3] = target: T2, human IL-1β-hFc (human, UniProt P01584 117-269, limits assumed); experiment: competition ELISA on coated IL-1β-hFc, competitor IL-1R1(1-332)-his; 4-parameter fit
T2 construct: also called human IL-1f3-hFc [sic]; not shown: human IgG Fc purification tag

B1: anti-IL-1β murine monoclonal antibody 3H6 (antibody, V domains shown)
VH: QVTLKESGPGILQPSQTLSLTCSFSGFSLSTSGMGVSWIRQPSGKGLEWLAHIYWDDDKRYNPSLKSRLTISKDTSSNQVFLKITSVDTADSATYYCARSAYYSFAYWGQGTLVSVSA
VL: DIVMTQSHKFMSTSVGGRVRITCKASQDVDTDVAWFQQKPGQSPKLLIYWASTRHTGVPDRFTGSGSGTDFTLTISNVQSEDLADYFCQQYSSYPTFGAGTKLELK
notes: Mouse monoclonal antibody purified from hybridoma supernatant on protein A; also called antibody secreted by hybridoma cell line LT010 (IL-1β-3H6), CCTCC NO: C2018133
[1]
  OD (450 nm): 1.23 OD450
[2]
  EC50: 99 pM
[3]
  EC50: 137 pM
